We go through four compounds from US20260224761A1, “DUAL LABELLED COMPOUNDS TARGETING THE PROSTATE SPECIFIC MEMBRANE ANTIGEN” (priority 2023, published 2026).

The target in series [1] is T1, PSMA (Homo sapiens, UniProt Q04609).
T1 construct: using PSMA-expressing LNCaP cells and ([^125I]I-BA)EuK as standard radioligand; endogenous in cells; host or cells: LNCaP cells
Kind of series: Competitive binding experiments (IC50) using PSMA-expressing LNCaP cells and ([125I]I-BA)EuK as standard radioligand. Here is the method:
Competitive binding experiments (IC50) were carried out in accordance with an established protocol ([…]. et al., Eur. J. Nuc. Mol. Med. Imaging Res., 2014, 4, 63) using PSMA-expressing LNCaP cells and ([^125I]I-BA)EuK as standard radioligand.

In series [2] the target is T1, PSMA. The conditions noted are these: LNCaP cells; reference compounds, assayed under identical conditions (literature cited in table title); # = free mas3-chelator; cited from earlier work.
Series [3] can be described thus: Plasma protein binding. It is filed as in vitro ADME. The note with it: plasma. Here is the method: Quantum yield, molar extinction coefficient and serum protein binding experiments were performed according to previously published procedures (Hensbergen A. W. et al., Dyes and Pigments, 2018, 152, 19-28).
A short description of series [4]: Lipophilicity, modified shake-flask method. In kind it is physicochemical. The protocol:
The lipophilicity of [^99mTc]PSMA-HSG, [^99mTc]EuK(SO3)Cy5-mas3 and [^99mTc]EuK(SO3)Cy5(SO3)-mas3 was determined via a modified shake-flask method as described ([…]. et al., Eur. J. Nuc. Mol. Med. Imaging Res., 2014, 4, 63).

Series [5] in a line: Biodistribution in LNCaP xenograft bearing NSG mice. The conditions noted are these: NSG, mouse, in vivo, iv, total radioactivity; for tissue uptake at 2 h: 1 nmol/animal; for tissue uptake at 6 h: 0.1 nmol/animal. In kind it is in vivo. Here is the method: (§1) The biodistribution of [^99mTc]PSMA-HSG, [^99mTc]EuK(SO3)Cy5-mas3 and [^99mTc]EuK(SO3)Cy5(SO3)-mas3 was investigated in LNCaP xenograft bearing NSG mice. […] (0.1 nmol-cohort), respectively.
(§2) To assess the influence of the different ligand designs of [^99mTc]PSMA-HSG and [^99mTc]mas3-(SO3)Cy5(SO3)—EuK on in vivo PSMA-targeting and general pharmacokinetics, their in vivo biodistribution was investigated in LNCaP xenograft bearing NSG mice in two different experimental settings: • A) at 2 h p.i. using a ligand dose of 1 nmol/animal. These conditions were chosen to allow comparability of the data from this study (Table 3) with previous results in a different tumor model (Hensbergen, A. W. et al., J. Nucl. Med., 2020, 61, 234-241). Here, [^99mTc]mas3-Cy5(SO3)—EuK was additionally included as an internal reference to establish the “missing link” between studies. • B) at 6 h p.i. using a ligand dose of 0.1 nmol/animal (Table 4). The latter settings were adapted to a timeline and dosing with more similarity to the clinical situation (surgery at a later time point, microdosing principle). Of note, however, a ligand amount of 0.1 nmol/mouse (extrapolation: 280 nmol/70 kg patient) still exceeds the potentially applicable clinical dose (48 nmol/70 kg patient for a compound with a molecular weight of −2100 g/mol). Nevertheless, it represents a dose level at which significant competition effects between unlabeled precursor and radioligand for PSMA binding sites in tumor tissue are not probable (Eder A. C. et al., J. Nucl. Med., 2021, 62, 1461-1467; Kalidindi T. M. et al., Eur. J. Nucl. Med. Mol. Imaging, 2021, 48, 2642-2651).

For series [6], the system named is LNCaP xenograft bearing NSG mice. The series is described as above. In kind it is in vivo. The protocol: as §1, §2
Series [7] relates to PC346C orthotopic xenografts in Balb/c nude mice. The note with it: 1 nmol ligand, 2 h p.i.; cited from earlier work.

Read-outs that look alike come from different tables or passages of the source. Where a SMILES comes first, the peptide text is derived from it. [ ]: non-standard residue; d: D form. The star is where a group is joined. X1 = O=C(O)CC[C@H](NC(=O)N[C@@H](CCCCNC(=O)CCCCCCC(=O)*)C(=O)O)C(=O)O; d2Nal = N[C@H](Cc1ccc2ccccc2c1)C(=O)O; Mercaptoacetyl = O=C(CS)*

T1 sequence (Q04609 whole entry): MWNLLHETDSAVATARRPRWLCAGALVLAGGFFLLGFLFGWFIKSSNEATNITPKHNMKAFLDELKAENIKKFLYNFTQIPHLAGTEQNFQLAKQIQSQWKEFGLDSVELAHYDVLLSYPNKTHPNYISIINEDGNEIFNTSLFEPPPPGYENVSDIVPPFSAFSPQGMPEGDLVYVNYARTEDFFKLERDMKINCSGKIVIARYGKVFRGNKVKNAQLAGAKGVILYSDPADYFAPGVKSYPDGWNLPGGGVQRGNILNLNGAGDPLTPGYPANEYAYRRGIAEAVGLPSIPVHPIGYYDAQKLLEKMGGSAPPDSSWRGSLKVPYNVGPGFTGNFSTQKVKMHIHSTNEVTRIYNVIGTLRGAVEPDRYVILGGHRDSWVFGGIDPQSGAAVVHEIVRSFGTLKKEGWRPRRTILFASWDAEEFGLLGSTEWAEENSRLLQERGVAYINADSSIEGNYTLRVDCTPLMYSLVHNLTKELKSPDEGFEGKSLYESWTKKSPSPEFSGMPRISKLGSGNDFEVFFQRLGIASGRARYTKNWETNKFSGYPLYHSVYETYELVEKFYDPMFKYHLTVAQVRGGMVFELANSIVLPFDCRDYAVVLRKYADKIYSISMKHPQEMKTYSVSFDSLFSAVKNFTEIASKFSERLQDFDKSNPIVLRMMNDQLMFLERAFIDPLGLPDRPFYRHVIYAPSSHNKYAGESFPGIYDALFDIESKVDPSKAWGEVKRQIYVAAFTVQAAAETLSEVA

In series [1] (LNCaP cells, free mas3-chelator, novel compounds), `CC(=O)SCC(=O)N[C@H](CO)C(=O)N[C@H](CO)C(=O)N[C@H](CO)C(=O)N[C@H](CCCCNC(=O)CCCCCN1\C(=C/C=C/C=C/C2=[N+](C)c3ccc(S(=O)(=O)O)cc3C2(C)C)C(C)(C)c2cc(S(=O)(=O)O)ccc21)C(=O)N[C@H](Cc1ccc(O)cc1)C(=O)N[C@H](Cc1ccc2ccccc2c1)C(=O)N[C@H](CCCCNC(=O)CCCCCCC(=O)NCCCC[C@H](NC(=O)N[C@@H](CCC(=O)O)C(=O)O)C(=O)O)C(=O)O` [PSMA-HSG, Ac-mas3-k(Sulfo-Cy5)-γ-nal-k-Sub-EuK] yielded a 50% inhibitory concentration (IC50) of 29.6 ± 5.6 nM.

For `O=C(O)CC[C@H](NC(=O)N[C@@H](CCCCNC(=O)CCCCCCC(=O)NCCCC[C@@H](NC(=O)[C@@H](Cc1ccc2ccccc2c1)NC(=O)[C@@H](Cc1ccc(O)cc1)NC(=O)[C@H](CO)NC(=O)[C@H](CO)NC(=O)[C@H](CO)NC(=O)CS)C(=O)O)C(=O)O)C(=O)O` [PSMA-I&S] (Mercaptoacetyl-SSS[dY][d2Nal][dK](X1)-OH), in series [2], the half-inhibitory concentration (IC50) was 39.7 ± 1.2 nM.

Turning to `CC1(C)C(/C=C/C=C/C=C2/N(CCCCNC(=O)CCCCCNC(=O)[C@@H](CO)NC(=O)[C@@H](CO)NC(=O)[C@@H](CO)NC(=O)CS)c3ccc(S(=O)(=O)O)cc3C2(C)C)=[N+](CCCCCC(=O)NCCCC[C@H](NC(=O)N[C@@H](CCC(=O)O)C(=O)O)C(=O)O)c2ccc(S(=O)(=O)[O-])cc21` [[^99mTc]mas3-(SO3)Cy5(SO3)-EuK, metal not drawn], the fraction unbound in series [3] (Plasma Protein Binding (%)) was 0.256. In series [1], the “lower PSMA-affinity compared to [99mTc]PSMA-HSG” value stood at 4.5 fold. For the same compound, the logP in series [4] was -2.99. For the same compound, the tissue uptake at 2 h in series [5] (Biodistribution: LNCaP tumor) came out at 3.5 ± 1.1 %ID/g; in series [5] (Biodistribution: blood), 0.7 ± 0.1 %ID/g; in series [5] (Biodistribution: heart), 0.3 ± 0.1 %ID/g; in series [5] (Biodistribution: intestines), 4.2 ± 0.4 %ID/g; in series [5] (Biodistribution: kidneys) it was 59.2 ± 14.4 %ID/g; in series [5] (Biodistribution: liver), 1 ± 0.4 %ID/g. The tissue uptake at 2 h in series [5] (Biodistribution: lung) turned out to be 1.1 ± 0.2 %ID/g; in series [5] (Biodistribution: muscle) it was 0.2 ± 0.03 %ID/g; in series [5] (Biodistribution: pancreas), 0.3 ± 0.1 %ID/g; in series [5] (Biodistribution: salivary glands), 3.1 ± 0.5 %ID/g; in series [5] (Biodistribution: spleen) it was 4.3 ± 1.3 %ID/g; in series [5] (Biodistribution: stomach) it was 0.6 ± 0.1 %ID/g.

In the case of `CC1(C)C(/C=C/C=C/C=C2/N(CCCCNC(=O)CCCCNC(=O)[C@@H](CO)NC(=O)[C@@H](CO)NC(=O)[C@@H](CO)NC(=O)CS)c3ccccc3C2(C)C)=[N+](CCCCCC(=O)NCCCC[C@H](NC(=O)N[C@@H](CCC(=O)O)C(=O)O)C(=O)O)c2ccc(S(=O)(=O)[O-])cc21` [[^99mTc]mas3-Cy5(SO3)-EuK, metal not drawn], the fraction unbound in series [3] (radiolabelled tracer, four tracers compared in this study, read-out: Plasma Protein Binding (%) (converted)) is 0.035. The logP in series [4] (radiolabelled tracer, shake-flask, read-out: lipophilicity [log POW]) is -1.94. In series [6] (2 h p.i., 1 nmol/animal), the “kidney accumulation compared to both ligands containing disulfo-Cy5” value is listed as “threefold lower”. In addition, the “increase of tumor accumulation over time” value in series [6] (6 h p.i./0.1 nmol versus 2 h p.i./1 nmol) was “only slightly increased”. Further, the tissue uptake at 6 h in series [5] (6 h p.i., read-out: Biodistribution: LNCaP tumor) was found to be 8.1 ± 1.4 %ID/g; in series [5] (6 h p.i., read-out: Biodistribution: blood), 0.7 ± 0.1 %ID/g; in series [5] (6 h p.i., read-out: Biodistribution: heart) it was 0.3 ± 0.1 %ID/g; in series [5] (6 h p.i., read-out: Biodistribution: intestines), 9.7 ± 1.1 %ID/g; in series [5] (6 h p.i., read-out: Biodistribution: kidneys), 70 ± 22 %ID/g; in series [5] (6 h p.i., read-out: Biodistribution: liver), 1.7 ± 0.3 %ID/g. For the same compound, the tissue uptake at 6 h in series [5] (6 h p.i., read-out: Biodistribution: lung) came to 0.8 ± 0.2 %ID/g; in series [5] (6 h p.i., read-out: Biodistribution: muscle), 0.2 ± 0.1 %ID/g; in series [5] (6 h p.i., read-out: Biodistribution: pancreas), 0.3 ± 0.1 %ID/g; in series [5] (6 h p.i., read-out: Biodistribution: salivary glands) it was 8.9 ± 2.1 %ID/g; in series [5] (6 h p.i., read-out: Biodistribution: spleen) it was 1.9 ± 0.6 %ID/g; in series [5] (6 h p.i., read-out: Biodistribution: stomach), 1.4 ± 0.3 %ID/g. For the same compound, the tissue to tissue ratio at 6 h in series [5] (0.1 nmol/mouse, 6 h p.i., 0.1 nmol, read-out: tumor/kidney ratio) was found to be 0.12 ± 0.04. The tissue uptake at 2 h in series [5] (2 h p.i., read-out: Biodistribution: LNCaP tumor) is 6.6 ± 2.8 %ID/g; in series [5] (2 h p.i., read-out: Biodistribution: blood) it was 0.9 ± 0.1 %ID/g; in series [5] (2 h p.i., read-out: Biodistribution: heart), 0.4 ± 0.1 %ID/g; in series [5] (2 h p.i., read-out: Biodistribution: intestines), 6.3 ± 2.5 %ID/g; in series [5] (2 h p.i., read-out: Biodistribution: kidneys), 21 ± 4.2 %ID/g; in series [5] (2 h p.i., read-out: Biodistribution: liver), 1.3 ± 0.5 %ID/g. Moreover, the tissue uptake at 2 h came out at 1.1 ± 0.1 %ID/g in series [5] (2 h p.i., read-out: Biodistribution: lung); 0.2 ± 0.03 %ID/g in series [5] (2 h p.i., read-out: Biodistribution: muscle); 0.3 ± 0.1 %ID/g in series [5] (2 h p.i., read-out: Biodistribution: pancreas); 1.7 ± 0.3 %ID/g in series [5] (2 h p.i., read-out: Biodistribution: salivary glands); 1.9 ± 0.5 %ID/g in series [5] (2 h p.i., read-out: Biodistribution: spleen); 0.5 ± 0.1 %ID/g in series [5] (2 h p.i., read-out: Biodistribution: stomach). Also, the tissue to tissue ratio at 2 h in series [5] (1 nmol/mouse, 2 h p.i., 1 nmol, read-out: tumor/kidney ratio) amounted to 0.31 ± 0.15. Also, in series [7], the absolute intestinal uptake is 1.61±0.29 % iD/g. Besides, the tumor accumulation in series [7] is given as 15.2±2.9 % iD/g.

One may read the IC50 as the concentration that gives 50% inhibition.
